Assay results reported in paper PMC3605307.

What was measured:
[1] = target: human TRAIL-R2-Fc M152A/R154A/K155A (human) (UniProt O14763); assay: SPR
[2] = target: Human TRAIL-R2-Fc V167A (human) (UniProt O14763); assay: SPR
[3] = target: human TRAIL-R2-Fc P150A (human) (UniProt O14763); assay: SPR
[4] = target: human TRAIL-R2-Fc R154A (human) (UniProt O14763); assay: SPR
[5] = target: Human TRAIL-R2-Fc F112A (human) (UniProt O14763); assay: SPR
[6] = target: human TRAIL-R2-Fc L110A/L114A (human) (UniProt O14763); assay: SPR
[7] = target: human TRAIL-R2-Fc M152A (human) (UniProt O14763); assay: SPR
[8] = target: human TRAIL-R2-Fc K155A (human) (UniProt O14763); assay: SPR
[9] = target: human TRAIL-R2-Fc E78A/D109A (human) (UniProt O14763); assay: SPR
[10] = target: Human TRAIL-R2-Fc D148A (human) (UniProt O14763); assay: SPR
[11] = target: Human TRAIL-R2-Fc D109A together with E78A (human) (UniProt O14763); assay: SPR
[12] = target: TRAIL-R1-Fc fusion protein (UniProt O00220); assay: SPR
Chain of TRAIL-R1-Fc fusion protein (O00220 24-239): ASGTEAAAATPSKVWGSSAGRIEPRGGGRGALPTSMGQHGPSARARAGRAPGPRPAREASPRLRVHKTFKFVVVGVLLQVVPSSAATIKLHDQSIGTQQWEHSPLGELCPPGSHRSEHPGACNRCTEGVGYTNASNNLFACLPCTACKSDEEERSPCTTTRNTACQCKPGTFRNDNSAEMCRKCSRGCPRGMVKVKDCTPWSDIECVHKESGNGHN

[13] = target: Human TRAIL-R2-Fc fusion protein (wild type) (human) (UniProt O14763); assay: SPR
[14] = target: Human CD155-Fc fusion protein (human) (UniProt P15151); assay: SPR
Chain of Human CD155-Fc fusion protein (human) (P15151 21-343): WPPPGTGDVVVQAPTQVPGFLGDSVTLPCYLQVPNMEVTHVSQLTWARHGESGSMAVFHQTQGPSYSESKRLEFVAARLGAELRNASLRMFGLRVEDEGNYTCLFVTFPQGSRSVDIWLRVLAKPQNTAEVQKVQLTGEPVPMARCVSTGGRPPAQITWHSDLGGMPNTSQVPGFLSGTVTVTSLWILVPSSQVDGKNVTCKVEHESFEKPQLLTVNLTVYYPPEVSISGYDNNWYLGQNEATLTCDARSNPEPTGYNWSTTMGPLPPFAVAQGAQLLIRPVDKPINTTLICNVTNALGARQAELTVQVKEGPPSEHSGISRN

[15] = target: Human TRAIL-R2-Fc double mutation L110A and L114A (human) (UniProt O14763); assay: SPR
[16] = target: Recombinant UL141 ectodomain (soluble, released from the Fc fusion) (human cytomegalovirus (HCMV), FIX strain) (UniProt Q6RJQ3); assay: SEC; size-exclusion elution profiles of the purified proteins against marker proteins
[17] = target: TRAIL-R1 ECD (Homo sapiens) (UniProt O00220); assay: SPR; conditions: cited from earlier work
Chain of TRAIL-R1 ECD (Homo sapiens) (O00220 24-239): as the sequence (O00220 24-239) above

[18] = target: TRAIL-R2 ECD (Homo sapiens) (UniProt O14763); assay: SPR; conditions: cited from earlier work

HCMV UL141 ectodomain, soluble (released from the thrombin-cleavable Fc fusion) (from UniProt Q6RJQ3 37-278) (domain or fragment)
Kd [1]: 0.00739 µM | koff [1]: 0.00027 s⁻¹ | kon [1]: 36500 M⁻¹ s⁻¹ | Kd [2]: 0.0155 µM | koff [2]: 0.00048 s⁻¹ | kon [2]: 31000 M⁻¹ s⁻¹ | Kd [3]: 0.00832 µM | koff [3]: 0.000391 s⁻¹ | kon [3]: 47000 M⁻¹ s⁻¹ | Kd [4]: 0.00626 µM | koff [4]: 0.000243 s⁻¹ | kon [4]: 38800 M⁻¹ s⁻¹ | Kd [5]: 0.63 µM | koff [5]: 0.00566 s⁻¹ | kon [5]: 8980 M⁻¹ s⁻¹ | Kd [6]: 0.0427 µM | koff [6]: 0.00064 s⁻¹ | kon [6]: 15000 M⁻¹ s⁻¹ | Kd [7]: 0.00749 µM | koff [7]: 0.000382 s⁻¹ | kon [7]: 51000 M⁻¹ s⁻¹ | Kd [8]: 0.00774 µM | koff [8]: 0.00038 s⁻¹ | kon [8]: 49100 M⁻¹ s⁻¹ | Kd [9]: 0.0604 µM | koff [9]: 0.00151 s⁻¹ | kon [9]: 25000 M⁻¹ s⁻¹ | Kd [10]: 0.0553 µM | koff [10]: 0.0013 s⁻¹ | kon [10]: 23500 M⁻¹ s⁻¹

Recombinant UL141 ectodomain (soluble, released from the Fc fusion) (from UniProt Q6RJQ3 37-278) (domain or fragment)
Kd [2]: 0.015 µM | fold reduction of binding affinity against wild type [11]: 10 fold | Kd [5]: 0.63 µM | KDeq [12]: 2.27 µM | Kd [12]: 2.33 µM | koff [12]: 0.014 s⁻¹ | kon [12]: 6020 M⁻¹ s⁻¹ | Kd [13]: 0.00596 µM | koff [13]: 7.21e-05 s⁻¹ | kon [13]: 12100 M⁻¹ s⁻¹ | K Dave [14]: 2 nM | Kd [14]: 0.00197 µM | koff [14]: 0.000346 s⁻¹ | kon [14]: 176000 M⁻¹ s⁻¹ | Kd [15]: 0.043 µM | Kd [10]: 0.055 µM | stoichiometry N [16]: 2

UL141 (from UniProt Q6RJQ3)
Kd [17]: 2.3 µM | Kd [18]: 0.006 µM

Pre-formed UL141–TRAIL-R2 complex (from UniProt Q6RJQ3;O14763)
K Dave [14]: 2 nM | Kd [14]: 0.00219 µM | koff [14]: 0.000333 s⁻¹ | kon [14]: 152000 M⁻¹ s⁻¹
